Experimental data: patent publication US20260078186A1 (HEFEI TG IMMUNOPHARMA, published 2026)
Values belong to the binder of their own block, whether it stands above or below them.

Assays:
[1] = molecular target: T1, PD-L1 on the surface of tumor cells (human lung adenocarcinoma A549 cells, human melanoma A375 cells) (human, UniProt Q9NZQ7 19-290); assay: flow cytometry on A375 and A549 cells
T1 construct: whole, on cells; No PD-L1-negative control cell is described; also called PD-L1 protein on the surface of tumor cells
Description: Human melanoma A375 cells and human lung adenocarcinoma A549 cells were diluted to 1×10⁶ cells/mL with PBS and added to 1.5 mL EP tubes at 100 μL/tube. 10 μL/tube of rat serum was added and blocked at 4° C. for 30 minutes. […] 1 mL of PBS was added to the EP tube. The system was centrifuged at 4° C. and 3500 rpm for 5 min. The supernatant was discarded, and the system was washed again with PBS. After centrifugation, the supernatant was discarded, and the cells were resuspended with 100 μL/tube PBS. 1 μL/tube of Alexa-647-labeled rat anti-human secondary antibody (Biolegend) was added and incubated at 4° C. in the dark for 30 min. The system was washed twice with PBS, and the supernatant was discarded after centrifugation. The cells were resuspended with 200 μL/tube PBS and detected by flow cytometry.

[2] = molecular target: T2, Human PD-L1-Fc fusion protein (purchased from Acro) (human, UniProt Q9NZQ7 19-238); assay: ELISA
T2 construct: extracellular domain; also called PD-L1 fusion protein; PD-L1 extracellular region protein; not shown: Fc part of the bought fusion protein

[3] = molecular target: T1, PD-L1 on the surface of tumor cells …; assay: flow cytometry on A549 cells
Description: 1 mL of PBS was added to the EP tube. […] The supernatant was discarded, and the system was washed again with PBS. […] The system was washed twice with PBS, and the supernatant was discarded after centrifugation. The cells were resuspended with 200 μL/tube PBS and detected by flow cytometry.

[4] = molecular target: T2, Human PD-L1-Fc fusion protein …; assay: ELISA, PD-L1-Fc coated at 1 µg/ml, anti-mouse IgG-HRP
Description: The PBS buffer in the 96-well plate was removed, and the plate was washed 6 times with PBST (pH 7.2 PBS containing 0.1% Tween 20) buffer. PBS/10% BSA was added at 200 μl/well and incubated at 37° C. for 2 h for blocking. The blocking solution was removed, and the plate was washed 6 times with PBST. […] The reaction system was removed, and the plate was washed 6 times with PBST. HRP (horseradish peroxidase)-labeled anti-mouse IgG secondary antibody was diluted with PBST/0.05% BSA at 100 μl/well and incubated at 37° C. for 1 h. After washing the plate 6 times with PBST, 80 μl/well TMB (tetramethylbenzidine) was added and incubated at room temperature for 3 min. 4 M sulfuric acid was added at 80 μl/well to terminate the reaction. The absorbance was read at 450 nm using a microplate reader.

[5] = molecular target: T2, Human PD-L1-Fc fusion protein …; assay: ELISA, PD-L1-Fc coated at 1 µg/ml; h19B8 binds slightly more strongly than CD3×h19B8
Description: The PD-L1-Fc fusion protein was diluted to 1 μg/ml with PBS buffer, added to a 96-well plate at 100 μl/well, and placed at 4° C. overnight. The PBS buffer in the 96-well plate was removed, and the plate was washed 6 times with PBST (pH 7.2 PBS containing 0.1% Tween 20) buffer. PBS/10% BSA was added at 200 μl/well and incubated at 37° C. for 2 h for blocking. The blocking solution was removed, and the plate was washed 6 times with PBST. […] The reaction system was removed, and the plate was washed 6 times with PBST. HRP (horseradish peroxidase)-labeled anti-human IgG-Fab secondary antibody was diluted with PBST/0.05% BSA at 100 μl/well and incubated at 37° C. for 1 h. After washing the plate 6 times with PBST, 80 μl/well TMB (tetramethylbenzidine) was added and incubated at room temperature for 3 min. 4 M sulfuric acid was added at 80 μL/well to terminate the reaction. The absorbance was read at 450 nm using a microplate reader.

T1 sequence (Q9NZQ7 19-290): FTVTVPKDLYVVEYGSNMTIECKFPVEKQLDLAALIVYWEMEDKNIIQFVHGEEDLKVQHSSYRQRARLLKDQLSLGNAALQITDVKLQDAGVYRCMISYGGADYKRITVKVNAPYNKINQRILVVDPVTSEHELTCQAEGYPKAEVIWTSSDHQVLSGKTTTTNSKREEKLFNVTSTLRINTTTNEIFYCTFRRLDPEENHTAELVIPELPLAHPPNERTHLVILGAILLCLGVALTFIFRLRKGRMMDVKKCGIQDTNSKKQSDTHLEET
T2 sequence (Q9NZQ7 19-238): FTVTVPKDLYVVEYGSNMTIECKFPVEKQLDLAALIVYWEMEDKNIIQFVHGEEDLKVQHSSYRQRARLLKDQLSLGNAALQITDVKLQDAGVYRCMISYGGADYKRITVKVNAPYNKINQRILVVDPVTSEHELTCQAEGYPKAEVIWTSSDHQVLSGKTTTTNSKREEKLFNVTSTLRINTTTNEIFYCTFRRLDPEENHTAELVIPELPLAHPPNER

- binding result [1]: binds
- binding result [2]: binds
B1: chimeric antibody 19B8-hIgG1LALA (19B8-hIgG1LALA heavy chain / 19B8-hK light chain) (antibody)
heavy: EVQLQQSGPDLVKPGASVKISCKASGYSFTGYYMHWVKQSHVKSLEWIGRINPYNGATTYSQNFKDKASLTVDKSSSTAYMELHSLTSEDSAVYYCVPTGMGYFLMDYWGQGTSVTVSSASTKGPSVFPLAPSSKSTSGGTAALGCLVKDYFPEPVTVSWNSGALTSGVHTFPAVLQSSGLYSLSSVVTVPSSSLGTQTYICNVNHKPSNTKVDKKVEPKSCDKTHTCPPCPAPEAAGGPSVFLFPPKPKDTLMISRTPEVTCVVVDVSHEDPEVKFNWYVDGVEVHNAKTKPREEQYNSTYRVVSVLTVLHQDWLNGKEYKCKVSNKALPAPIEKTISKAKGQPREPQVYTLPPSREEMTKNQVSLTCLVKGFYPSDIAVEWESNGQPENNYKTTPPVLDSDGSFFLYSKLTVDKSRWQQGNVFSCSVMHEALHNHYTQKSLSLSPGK
light: DIVMTQSHKFMSASVGDRVSITCKASQDVGSAVVWYRQKPGQSPKLLIYWASTRHTGVPDRFTGSGSGTDFTLTISNVQSEDLADYFCQQFTSYPTFGSGTRLEIKRTVAAPSVFIFPPSDEQLKSGTASVVCLLNNFYPREAKVQWKVDNALQSGNSQESVTEQDSKDSTYSLSSTLTLSKADYEKHKVYACEVTHQGLSSPVTKSFNRGEC
notes: Murine 19B8 variable regions on human IgG1 LALA / human kappa constant regions; also called 19B8 chimeric antibody; human-murine chimeric PD-L1 antibody

- binding result [3]: binds
- binding result [4]: binds
B2: murine 19B8 antibody (19B8-mIgG1 heavy chain / 19B8-mK light chain) (antibody)
heavy: EVQLQQSGPDLVKPGASVKISCKASGYSFTGYYMHWVKQSHVKSLEWIGRINPYNGATTYSQNFKDKASLTVDKSSSTAYMELHSLTSEDSAVYYCVPTGMGYFLMDYWGQGTSVTVSSAKTTPPSVYPLAPGSAAQTNSMVTLGCLVKGYFPEPVTVTWNSGSLSSGVHTFPAVLQSDLYTLSSSVTVPSSPRPSETVTCNVAHPASSTKVDKKIVPRDCGCKPCICTVPEVSSVFIFPPKPKDVLTITLTPKVTCVVVDISKDDPEVQFSWFVDDVEVHTAQTQPREEQFNSTFRSVSELPIMHQDWLNGKEFKCRVNSAAFPAPIEKTISKTKGRPKAPQVYTIPPPKEQMAKDKVSLTCMITDFFPEDITVEWQWNGQPAENYKNTQPIMNTNGSYFVYSKLNVQKSNWEAGNTFTCSVLHEGLHNHHTEKSLSHSPGK
light: DIVMTQSHKFMSASVGDRVSITCKASQDVGSAVVWYRQKPGQSPKLLIYWASTRHTGVPDRFTGSGSGTDFTLTISNVQSEDLADYFCQQFTSYPTFGSGTRLEIKRADAAPTVSIFPPSSEQLTSGGASVVCFLNNFYPKDINVKWKIDGSERQNGVLNSWTDQDSKDSTYSMSSTLTLTKDEYERHNSYTCEATHKTSTSPIVKSFNRNEC
notes: Recombinant murine IgG1/kappa made in ExpiCHO-S cells; also called murine PD-L1 antibody 19B8; murine PD-L1 antibody (19B8)

- binding result [5]: binds
- binding result [1]: binds
B3: humanized PD-L1 antibody h19B8-hIgG1LALA (h19B8-hIgG1LALA heavy chain / h19B8-hK light chain) (antibody, V domains shown)
VH: QVQLVQSGAEVKKPGASVKVSCKASGYSFTGYYMHWVRQAPGQGLEWIGRINPYNGATTYSQNFKDRATMTVDTSISTAYMELSRLRSDDTAVYYCVPTGMGYFLMDYWGQGTLVTVSS
VL: DIQLTQSPSFLSASVGDRVTITCKASQDVGSAVVWYQQKPGKAPKLLIYWASTRHTGVPSRFSGSGSGTEFTLTISSLQPEDFATYFCQQFTSYPTFGQGTKLEIKR
notes: also called humanized 19B8 antibody; h19B8 monoclonal antibody
